The record followed here is US7657380.

The labels stand for the following.
T1: human CD30 (commercial, conjugated to digoxigenin) (human, UniProt P28908 19-379, limits assumed, conjugated to digoxigenin (DIG))
T1 sequence (looked up): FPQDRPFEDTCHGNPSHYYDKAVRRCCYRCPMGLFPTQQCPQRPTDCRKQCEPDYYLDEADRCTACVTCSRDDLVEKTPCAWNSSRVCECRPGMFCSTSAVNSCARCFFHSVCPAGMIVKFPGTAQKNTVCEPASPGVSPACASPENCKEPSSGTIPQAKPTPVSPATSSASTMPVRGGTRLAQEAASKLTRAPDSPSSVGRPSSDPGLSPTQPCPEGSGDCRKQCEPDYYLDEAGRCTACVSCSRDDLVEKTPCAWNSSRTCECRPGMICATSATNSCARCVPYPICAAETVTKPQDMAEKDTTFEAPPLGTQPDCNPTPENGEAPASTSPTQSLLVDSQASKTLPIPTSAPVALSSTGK

T2: CD30 fused to the Fc region of IgG1 (R&D Systems) (UniProt P28908 19-379)
T2 sequence (looked up): T1 sequence (looked up)

B1: AC10 H1/L3 full length antibody (antibody, V domains shown)
VH: QIQLVQSGPEVKKPGASVKVSCKASGYTFTDYYITWVRQAPGQGLEWMGWIYPGSGNTKYNEKFQGRVTITVDTSASTAYMELSSLRSEDTAVYFCANYGNYWFAYWGQGTLVTVSS
VL: DIVLTQSPDSLAVSLGERATINCKASQSVDFDGDSYMNWYQQKPGQPPKVLIYAASNLESGIPARFSGSGSGTDFTLTINSLEAEDAATYYCQQSNEDPWTFGGGTKVEIK
B2: AC10 H3/L3 full length antibody (antibody, V domains shown)
VH: B1 VH with V68F, T69V, I70F, T71S, M81L, E82Q, L83I, R87K, S88A
VL: B1 VL
B3: AC10 H1/L2 full length antibody (antibody, V domains shown)
VH: B1 VH
VL: DIVLTQSPSSLSASVGDRVTITCRASQSVDFDGDSYMNWYQQKPGQPPKVLIYAASNLESGIPARFSGSGSGTDFTLTISSLQPEDFATYYCQQSNEDPWTFGGGTKVEIK
B4: AC10 H1/L0 full length antibody (antibody, V domains shown)
VH: B1 VH
VL: B1 VL with D9A, E17Q, N22S, T78N, N80H, S81P, L82V, A84E, V108L
B5: AC10 H1/L1 full length antibody (antibody, V domains shown)
VH: B1 VH
VL: B3 VL with S9A, S10T, A13L, V15P, D17E, V19A, I21L, T22S
B6: AC10 H3/L0 full length antibody (antibody, V domains shown)
VH: B1 VH with V68F, T69V, I70F, T71S, M81L, E82Q, L83I, R87K, S88A
VL: B1 VL with D9A, E17Q, N22S, T78N, N80H, S81P, L82V, A84E, V108L
B7: AC10 H2/L3 full length antibody (antibody, V domains shown)
VH: QIQLVESGGGLVKPGGSLRLSCAASGYTFTDYYITWVRQAPGQGLEWMGWIYPGSGNTKYNEKFQGRVTMTVDTSTSTAYMELSSLRSEDTAVYFCANYGNYWFAYWGQGTLVTVSS
VL: B1 VL
B8: AC10 H3/L3.64 (antibody, IgG1, name in Kabat numbering, V domains shown)
VH: B1 VH with V68F, T69V, I70F, T71S, M81L, E82Q, L83I, R87K, S88A
VL: B1 VL with D98T
B9: AC10 H3/L3.66 (antibody, IgG1, name in Kabat numbering, V domains shown)
VH: B1 VH with V68F, T69V, I70F, T71S, M81L, E82Q, L83I, R87K, S88A
VL: B1 VL with W100I
B10: AC10 H3/L3.65 (antibody, IgG1, name in Kabat numbering, V domains shown)
VH: B1 VH with V68F, T69V, I70F, T71S, M81L, E82Q, L83I, R87K, S88A
VL: B1 VL with W100F

Substitutions are numbered along the chain they refer to.

For one assay, the target named is T1, human CD30 (commercial, conjugated to …). Nature of the assay: AlphaScreen competition vs biotin-WT AC10. For orientation: Alpha assays give light when donor and acceptor beads are brought close together.
On to B1, for which the “Fold IC50 vs WT” value was 0.18 fold and the IC50 (as a rule, the concentration that gives 50% inhibition) turned out to be 17.4 nM.

Regarding B2, the “Fold IC50 vs WT” value was determined as 1.59 fold and the IC50 turned out to be 1.99 nM.

B3: the “Fold IC50 vs WT” value was determined as 0.07 fold and the IC50 was 45.3 nM.

Take B4: the “Fold IC50 vs WT” value was 0.32 fold and the half-maximal inhibitory concentration (IC50) was determined as 9.77 nM.

Consider B5, for which the “Fold IC50 vs WT” value stood at 0.11 fold and the IC50 was found to be 27.7 nM.

Take B6: the “Fold IC50 vs WT” value stood at 0.51 fold and the half-maximal inhibitory concentration (IC50) turned out to be 6.18 nM.

Turning to B7, the “Fold IC50 vs WT” value was determined as 0.12 fold and the IC50 turned out to be 27.2 nM.

Another assay has the same target. Nature of the assay: AlphaScreen competition.
As for B8, the “Fold IC50 vs H3/L3” value amounted to 0.14 fold.

For B9, the “Fold IC50 vs H3/L3” value worked out at 0 fold.

Regarding B10, the “Fold IC50 vs H3/L3” value was 0.34 fold.

The target in another assay is T2, CD30 fused to the Fc region of IgG1 …. Nature of the assay: SPR, CD30-Fc on Protein A chip. In general terms: In SPR one partner is held on a chip, and binding of the other changes the refractive index at the surface.
On to B1, for which the “Fold KD vs WT” value was found to be 0.67 fold and the Kd (commonly the constant that tells how readily two partners part at equilibrium) was 5.09 nM.

Consider B2, for which the “Fold KD vs WT” value came out at 1.45 fold and binding was put at a Kd of 2.33 nM.

B3: the “Fold KD vs WT” value is 0.45 fold and the Kd came to 7.55 nM.

For the molecule B4, the “Fold KD vs WT” value amounted to 0.53 fold and the Kd came to 6.39 nM.

B5: the “Fold KD vs WT” value came out at 0.6 fold and the dissociation constant Kd was found to be 5.63 nM.

Take B6: the “Fold KD vs WT” value came to 1.1 fold and the Kd came to 3.08 nM.

In the case of B7, the “Fold KD vs WT” value worked out at 0.5 fold and the dissociation constant Kd came out at 6.75 nM.
